# According to PMC8274477 (Frontiers in Cell and Developmental Biology, 2021):
# Target: T1, OTULIN (OTU deubiquitinase with linear linkage specificity, FAM105B), His-tagged, biotin-labelled (human, UniProt Q96BN8 1-352, biotin (label; sites not stated))
# T1 construct: OTULIN (FAM105B), cDNA in pET28a; also called HIS-OTULIN; source: E. coli BL21 (DE3), purified (His-tag Purification Resin), labelled with biotin; not shown: His6, N-terminal, kept
# Assay: peptide or protein array; HuProt human proteome microarray; 5 ug/5 ml biotin-labelled LUBAC or OTULIN in solution, 1 h at room temperature; Cy5-streptavidin, scanned at 635 nm; BSA as negative control; hits: Z-score >= 3 and I_(Mean_Ratio) >= 1.4
# Settings: both partners purified
row,binding result,Binder
1,binds,"SRXN1 (natural protein, SRXN1; protein on the human proteome microarray; source: spotted on the HuProt human proteome microarray) not shown"
2,binds,"RALY (natural protein, human, UniProt Q9UKM9 1-306, looked up, RALY; protein on the human proteome microarray; source: spotted on the HuProt human proteome microarray) MSLKLQASNVTNKNDPKSINSRVFIGNLNTALVKKSDVETIFSKYGRVAGCSVHKGYAFVQYSNERHARAAVLGENGRVLAGQTLDINMAGEPKPDRPKGLKRAASAIYSGYIFDYDYYRDDFYDRLFDYRGRLSPVPVPRAVPVKRPRVTVPLVRRVKTNVPVKLFARSTAVTTSSAKIKLKSSELQAIKTELTQIKSNIDALLSRLEQIAAEQKANPDGKKKGDGGGAGGGGGGGGSGGGGSGGGGGGGSSRPPAPQENTTSEAGLPQGEARTRDDGDEEGLLTHSEEELEHSQDTDADDGALQ"
3,binds,"PYCR2 (natural protein, human, UniProt Q96C36 1-320, looked up, PYCR2; protein on the human proteome microarray; source: spotted on the HuProt human proteome microarray) MSVGFIGAGQLAYALARGFTAAGILSAHKIIASSPEMNLPTVSALRKMGVNLTRSNKETVKHSDVLFLAVKPHIIPFILDEIGADVQARHIVVSCAAGVTISSVEKKLMAFQPAPKVIRCMTNTPVVVQEGATVYATGTHALVEDGQLLEQLMSSVGFCTEVEEDLIDAVTGLSGSGPAYAFMALDALADGGVKMGLPRRLAIQLGAQALLGAAKMLLDSEQHPCQLKDNVCSPGGATIHALHFLESGGFRSLLINAVEASCIRTRELQSMADQEKISPAALKKTLLDRVKLESPTVSTLTPSSPGKLLTRSLALGGKKD"
4,binds,"TAF9B (natural protein, human, UniProt Q9HBM6 1-251, looked up, TAF9B; protein on the human proteome microarray; source: spotted on the HuProt human proteome microarray) MESGKMAPPKNAPRDALVMAQILKDMGITEYEPRVINQMLEFAFRYVTTILDDAKIYSSHAKKPNVDADDVRLAIQCRADQSFTSPPPRDFLLDIARQKNQTPLPLIKPYAGPRLPPDRYCLTAPNYRLKSLIKKGPNQGRLVPRLSVGAVSSKPTTPTIATPQTVSVPNKVATPMSVTSQRFTVQIPPSQSTPVKPVPATTAVQNVLINPSMIGPKNILITTNMVSSQNTANEANPLKRKHEDDDDNDIM"
5,binds,"RAB2B (natural protein, human, UniProt Q8WUD1 1-216, looked up, RAB2B; protein on the human proteome microarray; source: spotted on the HuProt human proteome microarray) MTYAYLFKYIIIGDTGVGKSCLLLQFTDKRFQPVHDLTIGVEFGARMVNIDGKQIKLQIWDTAGQESFRSITRSYYRGAAGALLVYDITRRETFNHLTSWLEDARQHSSSNMVIMLIGNKSDLESRRDVKREEGEAFAREHGLIFMETSAKTACNVEEAFINTAKEIYRKIQQGLFDVHNEANGIKIGPQQSISTSVGPSASQRNSRDIGSNSGCC"
6,binds,"SDS (natural protein, human, UniProt P20132 1-328, looked up, SDS; protein on the human proteome microarray; source: spotted on the HuProt human proteome microarray) MMSGEPLHVKTPIRDSMALSKMAGTSVYLKMDSAQPSGSFKIRGIGHFCKRWAKQGCAHFVCSSAGNAGMAAAYAARQLGVPATIVVPSTTPALTIERLKNEGATVKVVGELLDEAFELAKALAKNNPGWVYIPPFDDPLIWEGHASIVKELKETLWEKPGAIALSVGGGGLLCGVVQGLQEVGWGDVPVIAMETFGAHSFHAATTAGKLVSLPKITSVAKALGVKTVGAQALKLFQEHPIFSEVISDQEAVAAIEKFVDDEKILVEPACGAALAAVYSHVIQKLQLEGNLRTPLPSLVVIVCGGSNISLAQLRALKEQLGMTNRLPK"
7,binds,"SULT1C2 (natural protein, human, UniProt O00338 1-296, looked up, SULT1C2; protein on the human proteome microarray; source: spotted on the HuProt human proteome microarray) MALTSDLGKQIKLKEVEGTLLQPATVDNWSQIQSFEAKPDDLLICTYPKAGTTWIQEIVDMIEQNGDVEKCQRAIIQHRHPFIEWARPPQPSGVEKAKAMPSPRILKTHLSTQLLPPSFWENNCKFLYVARNAKDCMVSYYHFQRMNHMLPDPGTWEEYFETFINGKVVWGSWFDHVKGWWEMKDRHQILFLFYEDIKRDPKHEIRKVMQFMGKKVDETVLDKIVQETSFEKMKENPMTNRSTVSKSILDQSISSFMRKGTVGDWKNHFTVAQNERFDEIYRRKMEGTSINFCMEL"
8,binds,"RAB5A (natural protein, human, UniProt P20339 1-215, looked up, RAB5A; protein on the human proteome microarray; source: spotted on the HuProt human proteome microarray) MASRGATRPNGPNTGNKICQFKLVLLGESAVGKSSLVLRFVKGQFHEFQESTIGAAFLTQTVCLDDTTVKFEIWDTAGQERYHSLAPMYYRGAQAAIVVYDITNEESFARAKNWVKELQRQASPNIVIALSGNKADLANKRAVDFQEAQSYADDNSLLFMETSAKTSMNVNEIFMAIAKKLPKNEPQNPGANSARGRGVDLTEPTQPTRNQCCSN"
9,binds,"SPRR4 (natural protein, human, UniProt Q96PI1 1-79, looked up, SPRR4; protein on the human proteome microarray; source: spotted on the HuProt human proteome microarray) MSSQQQQRQQQQCPPQRAQQQQVKQPCQPPPVKCQETCAPKTKDPCAPQVKKQCPPKGTIIPAQQKCPSAQQASKSKQK"
10,binds,"RBM3 (natural protein, human, UniProt P98179 1-157, looked up, RBM3; protein on the human proteome microarray; source: spotted on the HuProt human proteome microarray) MSSEEGKLFVGGLNFNTDEQALEDHFSSFGPISEVVVVKDRETQRSRGFGFITFTNPEHASVAMRAMNGESLDGRQIRVDHAGKSARGTRGGGFGAHGRGRSYSRGGGDQGYGSGRYYDSRPGGYGYGYGRSRDYNGRNQGGYDRYSGGNYRDNYDN"
11,binds,"QKI (natural protein, human, UniProt Q96PU8 1-341, looked up, QKI; protein on the human proteome microarray; source: spotted on the HuProt human proteome microarray) MVGEMETKEKPKPTPDYLMQLMNDKKLMSSLPNFCGIFNHLERLLDEEISRVRKDMYNDTLNGSTEKRSAELPDAVGPIVQLQEKLYVPVKEYPDFNFVGRILGPRGLTAKQLEAETGCKIMVRGKGSMRDKKKEEQNRGKPNWEHLNEDLHVLITVEDAQNRAEIKLKRAVEEVKKLLVPAAEGEDSLKKMQLMELAILNGTYRDANIKSPALAFSLAATAQAAPRIITGPAPVLPPAALRTPTPAGPTIMPLIRQIQTAVMPNGTPHPTAAIVPPGPEAGLIYTPYEYPYTLAPATSILEYPIEPSGVLGAVATKVRRHDMRVHPYQRIVTADRAATGN"
12,binds,"SULT1B1 (natural protein, SULT1B1; protein on the human proteome microarray; source: spotted on the HuProt human proteome microarray) not shown"
13,binds,"PDCD6 (natural protein, human, UniProt O75340 1-191, looked up, PDCD6; protein on the human proteome microarray; source: spotted on the HuProt human proteome microarray) MAAYSYRPGPGAGPGPAAGAALPDQSFLWNVFQRVDKDRSGVISDTELQQALSNGTWTPFNPVTVRSIISMFDRENKAGVNFSEFTGVWKYITDWQNVFRTYDRDNSGMIDKNELKQALSGFGYRLSDQFHDILIRKFDRQGRGQIAFDDFIQGCIVLQRLTDIFRRYDTDQDGWIQVSYEQYLSMVFSIV"
14,binds,"AKR1C3 (natural protein, human, UniProt P42330 1-323, looked up, AKR1C3; protein on the human proteome microarray; source: spotted on the HuProt human proteome microarray) MDSKHQCVKLNDGHFMPVLGFGTYAPPEVPRSKALEVTKLAIEAGFRHIDSAHLYNNEEQVGLAIRSKIADGSVKREDIFYTSKLWSTFHRPELVRPALENSLKKAQLDYVDLYLIHSPMSLKPGEELSPTDENGKVIFDIVDLCTTWEAMEKCKDAGLAKSIGVSNFNRRQLEMILNKPGLKYKPVCNQVECHPYFNRSKLLDFCKSKDIVLVAYSALGSQRDKRWVDPNSPVLLEDPVLCALAKKHKRTPALIALRYQLQRGVVVLAKSYNEQRIRQNVQVFEFQLTAEDMKAIDGLDRNLHYFNSDSFASHPNYPYSDEY"
15,binds,"AKR1D1 (natural protein, human, UniProt P51857 1-326, looked up, AKR1D1; protein on the human proteome microarray; source: spotted on the HuProt human proteome microarray) MDLSAASHRIPLSDGNSIPIIGLGTYSEPKSTPKGACATSVKVAIDTGYRHIDGAYIYQNEHEVGEAIREKIAEGKVRREDIFYCGKLWATNHVPEMVRPTLERTLRVLQLDYVDLYIIEVPMAFKPGDEIYPRDENGKWLYHKSNLCATWEAMEACKDAGLVKSLGVSNFNRRQLELILNKPGLKHKPVSNQVECHPYFTQPKLLKFCQQHDIVITAYSPLGTSRNPIWVNVSSPPLLKDALLNSLGKRYNKTAAQIVLRFNIQRGVVVIPKSFNLERIKENFQIFDFSLTEEEMKDIEALNKNVRFVELLMWRDHPEYPFHDEY"
16,binds,"POP7 (natural protein, human, UniProt O75817 1-140, looked up, POP7; protein on the human proteome microarray; source: spotted on the HuProt human proteome microarray) MAENREPRGAVEAELDPVEYTLRKRLPSRLPRRPNDIYVNMKTDFKAQLARCQKLLDGGARGQNACSEIYIHGLGLAINRAINIALQLQAGSFGSLQVAANTSTVELVDELEPETDTREPLTRIRNNSAIHIRVFRVTPK"
17,binds,"SLC25A16 (natural protein, human, UniProt P16260 1-332, looked up, SLC25A16; protein on the human proteome microarray; source: spotted on the HuProt human proteome microarray) MAAATAAAALAAADPPPAMPQAAGAGGPTTRRDFYWLRSFLAGGIAGCCAKTTVAPLDRVKVLLQAHNHHYKHLGVFSALRAVPQKEGFLGLYKGNGAMMIRIFPYGAIQFMAFEHYKTLITTKLGISGHVHRLMAGSMAGMTAVICTYPLDMVRVRLAFQVKGEHSYTGIIHAFKTIYAKEGGFFGFYRGLMPTILGMAPYAGVSFFTFGTLKSVGLSHAPTLLGRPSSDNPNVLVLKTHVNLLCGGVAGAIAQTISYPFDVTRRRMQLGTVLPEFEKCLTMRDTMKYVYGHHGIRKGLYRGLSLNYIRCIPSQAVAFTTYELMKQFFHLN"
18,binds,"RAB5C (natural protein, human, UniProt P51148 1-216, looked up, RAB5C; protein on the human proteome microarray; source: spotted on the HuProt human proteome microarray) MAGRGGAARPNGPAAGNKICQFKLVLLGESAVGKSSLVLRFVKGQFHEYQESTIGAAFLTQTVCLDDTTVKFEIWDTAGQERYHSLAPMYYRGAQAAIVVYDITNTDTFARAKNWVKELQRQASPNIVIALAGNKADLASKRAVEFQEAQAYADDNSLLFMETSAKTAMNVNEIFMAIAKKLPKNEPQNATGAPGRNRGVDLQENNPASRSQCCSN"
19,binds,"SRA1 (natural protein, human, UniProt Q9HD15 1-224, looked up, SRA1; protein on the human proteome microarray; source: spotted on the HuProt human proteome microarray) MAELYVKPGNKERGWNDPPQFSYGLQTQAGGPRRSLLTKRVAAPQDGSPRVPASETSPGPPPMGPPPPSSKAPRSPPVGSGPASGVEPTSFPVESEAVMEDVLRPLEQALEDCRGHTRKQVCDDISRRLALLQEQWAGGKLSIPVKKRMALLVQELSSHRWDAADDIHRSLMVDHVTEVSQWMVGVKRLIAEKRSLFSEEAANEEKSAATAEKNHTIPGFQQAS"
20,binds,"RPP25 (natural protein, human, UniProt Q9BUL9 1-199, looked up, RPP25; protein on the human proteome microarray; source: spotted on the HuProt human proteome microarray) MENFRKVRSEEAPAGCGAEGGGPGSGPFADLAPGAVHMRVKEGSKIRNLMAFATASMAQPATRAIVFSGCGRATTKTVTCAEILKRRLAGLHQVTRLRYRSVREVWQSLPPGPTQGQTPGEPAASLSVLKNVPGLAILLSKDALDPRQPGYQPPNPHPGPSSPPAAPASKRSLGEPAAGEGSAKRSQPEPGVADEDQTA"
21,binds,"PYCRL (natural protein, human, UniProt Q53H96 1-274, looked up, PYCRL; protein on the human proteome microarray; source: spotted on the HuProt human proteome microarray) MAAAEPSPRRVGFVGAGRMAGAIAQGLIRAGKVEAQHILASAPTDRNLCHFQALGCRTTHSNQEVLQSCLLVIFATKPHVLPAVLAEVAPVVTTEHILVSVAAGVSLSTLEELLPPNTRVLRVLPNLPCVVQEGAIVMARGRHVGSSETKLLQHLLEACGRCEEVPEAYVDIHTGLSGSGVAFVCAFSEALAEGAVKMGMPSSLAHRIAAQTLLGTAKMLLHEGQHPAQLRSDVCTPGGTTIYGLHALEQGGLRAATMSAVEAATCRAKELSRK"
